Assay results: patent EP4559472A1 (Universität Ulm, dated 2025)

Target: T1, Biotinylated C4d (UniProt P0C0L4 957-1336, limits assumed, biotinylated (thioester moiety; NHS-PEG4-Biotin Kit))
T1 construct: domain: C4d; also called C4d (biotinylated, on streptavidin sensor chip)
T1 sequence (looked up): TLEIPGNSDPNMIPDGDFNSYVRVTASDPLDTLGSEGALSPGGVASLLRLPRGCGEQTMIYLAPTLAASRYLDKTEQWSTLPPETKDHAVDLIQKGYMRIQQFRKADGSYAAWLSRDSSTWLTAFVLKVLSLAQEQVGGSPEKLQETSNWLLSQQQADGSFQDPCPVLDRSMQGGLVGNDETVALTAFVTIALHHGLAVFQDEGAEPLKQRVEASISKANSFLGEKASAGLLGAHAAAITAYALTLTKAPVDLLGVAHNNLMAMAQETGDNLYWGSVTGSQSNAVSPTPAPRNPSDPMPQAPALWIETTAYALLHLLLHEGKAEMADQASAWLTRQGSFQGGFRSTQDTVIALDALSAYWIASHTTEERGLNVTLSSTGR
Test: SPR, biotinylated C4d on streptavidin chip

B1: FH(15-18) (other, human, UniProt P08603 868-1104, looked up)
chain: IPCSQPPQIEHGTINSSRSSQESYAHGTKLSYTCEGGFRISEENETTCYMGKWSSPPQCEGLPCKSPPEISHGVVAHMSDSYQYGEEVTYKCFEGFGIDGPAIAKCLGEKWSHPPSCIKTDCLSLPSFENAIPMGEKKDVYKAGEQVTYTCATYYKMDGASNVTCINSRWTGRPTCRDTSCVNPPTVQNAYIVSRQMSKYPSGERVRYQCRSPYEMFGDEEVMCLNGNWTEPPQCKD
notes: domain: protein domains 15-18; Control protein; also called protein domains 15-18 of FH
Does B1 bind?
Result: no binding
